B1: Heat shock factor 1 (Hsf1) wild-type [human] / itself (parent)
chain: MDLPVGPGAAGPSNVPAFLTKLWTLVSDPDTDALICWSPSGNSFHVFDQGQFAKEVLPKYFKHNNMASFVRQLNMYGFRKVVHIEQGGLVKPERDDTEFQHPCFLRGQEQLLENIKRKVTSVSTLKSEDIKIRQDSVTKLLTDVQLMKGKQECMDSKLLAMKHENEALWREVASLRQKHAQQQKVVNKLIQFLISLVQSNRILGVKRKIPLMLNDSGSAHSMPKYSRQFSLEHVHGSGPYSAPSPAYSSSSLYAPDAVASSGPIISDITELAPASPMASPGGSIDERPLSSSPLVRVKEEPPSPPQSPRVEEASPGRPSSVDTLLSPTALIDSILRESEPAPASVTALTDARGHTDTEGRPPSPPPTSTPEKCLSVACLDKNELSDHLDAMDSNLDNLQTMLSSHGFSVDTSALLDLFSPSVTVPDMSLPDLDSSLASIQELLSPQEPPRPPEAENSSPDSGKQLVHYTAQPLFLLDPGSVDTGSNDLPVLFELGEGSYFSEGDGFAEDPTISLLTGSEPPKAKDPTVS

Variants of: B1
Test: nonreducing SDS-PAGE, quantification of higher-order oligomer bands
Details: with itself; purified Hsf1 mutants; means ± s.d. of three independent experiments; parent: 1; read off a plot

Variant	ratio to parent [AU]
MDLPVGPGAAGPSNVPAFLTKLWTLVSDPDTDALICWSPSGNSFHVFDQGQFAKEVLPKYFKHNNMASFVRQLNMYGFRKVVHIEQGGLVKPERDDTEFQHPCFLRGQEQLLENIKRKVTSVSTLKSEDIKIRQDSVTKLLTDVQLMKGKQECMDSKLLAMKHENEALWREVASLRQKHAQQQKVVNKLIQFLISLVQSNRILGVKRKIPLMLNDSGSAHSMPKYSRQFSLEHVHGSGPYSAPSPAYSSSSLYAPDAVASSGPIISDITELAPASPMASPGGSIDERPLSSSPLVRVKEEPPSPPQSPRVEEASPGRPSSVDTLLSPTALIDSILRESEPAPASVTALTDARGHTDTEGRPPSPPPTSTPEKSLSVASLDKNELSDHLDAMDSNLDNLQTMLSSHGFSVDTSALLDLFSPSVTVPDMSLPDLDSSLASIQELLSPQEPPRPPEAENSSPDSGKQLVHYTAQPLFLLDPGSVDTGSNDLPVLFELGEGSYFSEGDGFAEDPTISLLTGSEPPKAKDPTVS [chain 1 C373S C378S]	1.4
MDLPVGPGAAGPSNVPAFLTKLWTLVSDPDTDALISWSPSGNSFHVFDQGQFAKEVLPKYFKHNNMASFVRQLNMYGFRKVVHIEQGGLVKPERDDTEFQHPSFLRGQEQLLENIKRKVTSVSTLKSEDIKIRQDSVTKLLTDVQLMKGKQECMDSKLLAMKHENEALWREVASLRQKHAQQQKVVNKLIQFLISLVQSNRILGVKRKIPLMLNDSGSAHSMPKYSRQFSLEHVHGSGPYSAPSPAYSSSSLYAPDAVASSGPIISDITELAPASPMASPGGSIDERPLSSSPLVRVKEEPPSPPQSPRVEEASPGRPSSVDTLLSPTALIDSILRESEPAPASVTALTDARGHTDTEGRPPSPPPTSTPEKCLSVACLDKNELSDHLDAMDSNLDNLQTMLSSHGFSVDTSALLDLFSPSVTVPDMSLPDLDSSLASIQELLSPQEPPRPPEAENSSPDSGKQLVHYTAQPLFLLDPGSVDTGSNDLPVLFELGEGSYFSEGDGFAEDPTISLLTGSEPPKAKDPTVS [chain 1 C36S C103S]	1.1
MDLPVGPGAAGPSNVPAFLTKLWTLVSDPDTDALICWSPSGNSFHVFDQGQFAKEVLPKYFKHNNMASFVRQLNMYGFRKVVHIEQGGLVKPERDDTEFQHPCFLRGQEQLLENIKRKVTSVSTLKSEDIKIRQDSVTKLLTDVQLMKGKQESMDSKLLAMKHENEALWREVASLRQKHAQQQKVVNKLIQFLISLVQSNRILGVKRKIPLMLNDSGSAHSMPKYSRQFSLEHVHGSGPYSAPSPAYSSSSLYAPDAVASSGPIISDITELAPASPMASPGGSIDERPLSSSPLVRVKEEPPSPPQSPRVEEASPGRPSSVDTLLSPTALIDSILRESEPAPASVTALTDARGHTDTEGRPPSPPPTSTPEKCLSVACLDKNELSDHLDAMDSNLDNLQTMLSSHGFSVDTSALLDLFSPSVTVPDMSLPDLDSSLASIQELLSPQEPPRPPEAENSSPDSGKQLVHYTAQPLFLLDPGSVDTGSNDLPVLFELGEGSYFSEGDGFAEDPTISLLTGSEPPKAKDPTVS [chain 1 C153S]	0.46

— PMC11863153, “Mechanistic Insights Into Oxidative Response of Heat Shock Factor 1 Condensates” (JACS Au, 2025)
